Results on 21 substances are retold here after patent US20230038638A1, “COMPLEMENT FACTOR I-RELATED COMPOSITIONS AND METHODS” (published 2023).

In one experiment the target is T1, human C4b (human) (UniProt P0C0L5).
T1 sequence: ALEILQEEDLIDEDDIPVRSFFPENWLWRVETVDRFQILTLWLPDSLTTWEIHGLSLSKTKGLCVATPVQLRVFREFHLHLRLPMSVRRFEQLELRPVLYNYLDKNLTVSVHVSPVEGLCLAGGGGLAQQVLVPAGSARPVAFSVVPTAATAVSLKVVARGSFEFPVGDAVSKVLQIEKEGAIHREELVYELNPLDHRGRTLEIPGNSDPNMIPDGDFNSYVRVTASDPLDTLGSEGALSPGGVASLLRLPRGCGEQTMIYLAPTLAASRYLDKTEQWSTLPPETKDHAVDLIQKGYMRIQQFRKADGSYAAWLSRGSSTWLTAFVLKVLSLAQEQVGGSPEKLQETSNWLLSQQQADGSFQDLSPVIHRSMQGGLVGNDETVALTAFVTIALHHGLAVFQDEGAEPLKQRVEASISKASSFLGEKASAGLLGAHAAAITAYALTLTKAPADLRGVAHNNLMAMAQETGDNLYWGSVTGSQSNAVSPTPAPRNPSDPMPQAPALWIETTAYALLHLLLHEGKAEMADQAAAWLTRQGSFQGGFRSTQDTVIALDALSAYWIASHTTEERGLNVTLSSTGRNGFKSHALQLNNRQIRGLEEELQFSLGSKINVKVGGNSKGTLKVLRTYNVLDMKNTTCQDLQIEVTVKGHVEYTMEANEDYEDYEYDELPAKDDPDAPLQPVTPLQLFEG

In experiment [1] the target is soluble human C3b (human) (UniProt P01024).

“CFI-HSA variant S552G; Y553H; F559L; P558S (enzyme)” showed a C4b Screen Ref Fold (fold of CFI-HSA wild type) in the experiment with human C4b (human) of 2.33. Further, the iC3b Screen Ref Fold (fold of CFI-HSA wild type) in experiment [1] turned out to be 0.18.

“CFI-HSA variant S552G; Y553H; F559L; V565I; P558S (enzyme)” yielded a C4b Screen Ref Fold (fold of CFI-HSA wild type) with human C4b (human) of 2.44. In addition, the iC3b Screen Ref Fold (fold of CFI-HSA wild type) in experiment [1] was 0.62.

In the case of “CFI-HSA variant T495F; Y496L; D497E; S499G; I500K (enzyme)”, the C4b Screen Ref Fold (fold vs CFI-HSA wild type) in the experiment with human C4b (human) was -0.04. For the same substance, the iC3b Screen Ref Fold (fold vs CFI-HSA wild type) in experiment [1] was 0.

On to “CFI-HSA variant T495F; Y496L; D497E; S499G; I500K; G533A; K534Q; P535K; E536N; F537K (enzyme)”, for which the C4b Screen Ref Fold (fold vs CFI-HSA wild type) in the experiment with human C4b (human) is -0.02. Besides, in experiment [1], the iC3b Screen Ref Fold (fold vs CFI-HSA wild type) turned out to be 0.02.

As to CFI-HSA variant V323A (enzyme), in the experiment with human C4b (human), the C4b Screen Ref Fold (fold vs CFI-HSA wild type) was determined as 0.01. Also, in experiment [1], the iC3b Screen Ref Fold (fold vs CFI-HSA wild type) is 0.05.

As to CFI-HSA variant V565I (enzyme), the C4b Screen Ref Fold (fold of CFI-HSA wild type) with human C4b (human) is 1.11. Moreover, the iC3b Screen Ref Fold (fold of CFI-HSA wild type) in experiment [1] is 1.25.

Take CFI-HSA variant V565I; P558S (enzyme): in the experiment with human C4b (human), the C4b Screen Ref Fold (fold of CFI-HSA wild type) came to 1.41. In addition, the iC3b Screen Ref Fold (fold of CFI-HSA wild type) in experiment [1] worked out at 0.85.

CFI-HSA variant W381K (enzyme): the C4b Screen Ref Fold (fold vs CFI-HSA wild type) in the experiment with human C4b (human) was 0. In addition, the iC3b Screen Ref Fold (fold vs CFI-HSA wild type) in experiment [1] was determined as 0.02.

Turning to CFI-HSA variant Y20F; D425R (enzyme), the C4b Screen Ref Fold (fold vs CFI-HSA wild type) in the experiment with human C4b (human) worked out at 0.42. Also, the iC3b Screen Ref Fold (fold vs CFI-HSA wild type) in experiment [1] is 1.01.

On to “CFI-HSA variant Y20F; E38A; S250A; D425A (enzyme)”, for which, in the experiment with human C4b (human), the C4b Screen Ref Fold (fold vs CFI-HSA wild type) was 0.21. Moreover, the iC3b Screen Ref Fold (fold vs CFI-HSA wild type) in experiment [1] came out at 0.67.

For the substance “CFI-HSA variant Y403F; D425K; E457G; E461Q; K504Y; N531G (enzyme)”, in the experiment with human C4b (human), the C4b Screen Ref Fold (fold relative to CFI-HSA wild type) came to 3.11. The iC3b Screen Ref Fold (fold relative to CFI-HSA wild type) in experiment [1] was determined as 0.03.

In the experiment with human C4b (human), “CFI-HSA variant Y403F; G406A; D425K; E457G; E461Q; K504Y; N531G (enzyme)” came in with a C4b Screen Ref Fold (fold relative to CFI-HSA wild type) of 3.16. The iC3b Screen Ref Fold (fold relative to CFI-HSA wild type) in experiment [1] is 0.02.

“CFI-HSA variant Y403F; G406A; D425K; E457G; E461Q; N531G (enzyme)” registered a C4b Screen Ref Fold (fold relative to CFI-HSA wild type) with human C4b (human) of 4.12. Moreover, in experiment [1], the iC3b Screen Ref Fold (fold relative to CFI-HSA wild type) was determined as 0.14.

Turning to CFI-HSA variant Y408A (enzyme), the C4b Screen Ref Fold (fold vs CFI-HSA wild type) with human C4b (human) is 0.09. Moreover, in experiment [1], the iC3b Screen Ref Fold (fold vs CFI-HSA wild type) turned out to be 0.71.

In the case of CFI-HSA variant Y408G (enzyme), the C4b Screen Ref Fold (fold vs CFI-HSA wild type) with human C4b (human) turned out to be 0.05. In experiment [1], the iC3b Screen Ref Fold (fold vs CFI-HSA wild type) came out at 0.27.

CFI-HSA variant Y408L; D425K (enzyme) showed a C4b Screen Ref Fold (fold of CFI-HSA wild type) with human C4b (human) of 1.29. The iC3b Screen Ref Fold (fold of CFI-HSA wild type) in experiment [1] was 1.14.

“CFI-HSA variant Y408L; E457G; N531G; P535G; WT; GGSSGG (SEQ ID NO: 6); CR1(ccp15-17) (from UniProt P17927) (enzyme)”: the C4b Screen Ref Fold (fold of CFI-HSA wild type) in the experiment with human C4b (human) was 3.14. For the same substance, the iC3b Screen Ref Fold (fold of CFI-HSA wild type) in experiment [1] is 0.05.

In the experiment with human C4b (human), “CFI-HSA variant Y408L; E457G; N531G; WT; GGSSGG (SEQ ID NO: 6); CR1(ccp15-17) (from UniProt P17927) (enzyme)” gave a C4b Screen Ref Fold (fold of CFI-HSA wild type) of 3.65. Further, the iC3b Screen Ref Fold (fold of CFI-HSA wild type) in experiment [1] turned out to be 0.1.

In turn, “CFI-HSA variant Y408L; E457G; P535G; K534Q (enzyme)” had a C4b Screen Ref Fold (fold of CFI-HSA wild type) in the experiment with human C4b (human) of 1.43. The iC3b Screen Ref Fold (fold of CFI-HSA wild type) in experiment [1] is 0.53.

Take “CFI-HSA variant Y408L; E457G; P535G; N422K (enzyme)”: in the experiment with human C4b (human), the C4b Screen Ref Fold (fold of CFI-HSA wild type) worked out at 1.07. For the same substance, the iC3b Screen Ref Fold (fold of CFI-HSA wild type) in experiment [1] was found to be 1.39.

Take “CFI-HSA variant Y408L; E457G; P535G; P558S (enzyme)”: in the experiment with human C4b (human), the C4b Screen Ref Fold (fold of CFI-HSA wild type) came to 1.08. The iC3b Screen Ref Fold (fold of CFI-HSA wild type) in experiment [1] turned out to be 0.7.
